Measured values from publication PMC8092395, “Development of Stable Chimeric IL-15 for Trans-Presentation by the Antigen Presenting Cells” (Frontiers in Immunology, 2021).
One block for each molecule: values may come before it.

Assays:
[1] = target: human chimeric IL-15 (huIL-15 + huIgHG2 chimera; IL-2SP-N72DIL-15CDS-K322AIgHg2) (human); test: SEC; analytical size-exclusion HPLC, Zorbax Bio Series GF-250 column, PBS mobile phase, 1 ml/min; 20 µl of 1 μg/ml chimeric IL-15; OVA and BSA as standards
[2] = target: human chimeric IL-15 (huIL-15 + huIgHG2 chimera; IL-2SP-N72DIL-15CDS-K322AIgHg2) (human); test: non-reducing SDS-PAGE; purified chimeric IL-15 loaded on SDS-PAGE under non-reducing or reducing conditions, Coomassie stain, densitometry of dimer vs. monomer
[3] = target: the molecule itself; test: as above

stoichiometry N [1]: 2 | stoichiometry N [2]: 2
Molecule: human chimeric IL-15 (huIL-15 + huIgHG2 chimera; IL-2SP-N72DIL-15CDS-K322AIgHg2) (Fc fusion)

B1: mouse chimeric IL-15 (mIL-15 + mIgHG2a chimera) (Fc fusion)
chain: GIHVFILGCVSVGLPKTEANWIDVRYDLEKIESLIQSIHIDTTLYTDSDFHPSCKVTAMNCFLLELQVILHEYSNMTLNETVRNVLYLANSTLSSNKNVAESGCKECEELEEKTFTEFLQSFIRIVQMFINTSGSAKTTAPSVYPLAPVCGDTTGSSVTLGCLVKGYFPEPVTLTWNSGSLSSGVHTFPAVLQSDLYTLSSSVTVTSSTWPSQSITCNVAHPASSTKVDKKIEPRGPTIKPCPPCKCPAPNLLGGPSVFIFPPKIKDVLMISLSPIVTCVVVDVSEDDPDVQISWFVNNVEVHTAQTQTHREDYNSTLRVVSALPIQHQDWMSGKEFKCKVNNKDLPAPIERTISKPKGSVRAPQVYVLPPPEEEMTKKQVTLTCMVTDFMPEDIYVEWTNNGKTELNYKNTEPVLDSDGSYFMYSKLRVEKKNWVERNSYSCSVVHEGLHNHHTTKSFSRTPGK
stoichiometry N [3]: 2
